# B1: TRIB1 (parent)
# chain: EIGTSDQIVPEYQEDSDISSFFC
# Variants of: B1
# Assay: protein stability index of a GFP-peptide fusion (GPS, HEK-293T) (PSI 1-6); higher = more stable
# Conditions: c terminus: native
# 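Also: lentivirally expressed fusions sorted by FACS into six bins by GFP to DsRed ratio, PSI derived from sequencing read proportions per bin multiplied by bin number.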
row,Variant,protein stability index
1,EIGTSDQIVPEYQEDSPISSFFC [D17P],3.12
2,EIGTSDQIVPEYQEDSGISSFFC [D17G],4.13
3,EIGTSDQIVPEYQEDSCISSFFC [D17C],2.92
4,EIGTSDQIVPEYQEDSLISSFFC [D17L],3.2
5,EIGTSDQIVPEYQEDSTISSFFC [D17T],3.29
6,EIGTSDQIVPEYQEDSDISMFFC [S20M],2.62
7,EIGTSDQIVPEYQEDSDISAFFC [S20A],3.2
8,EIGTSDQIVPEYQEDSDISDFFC [S20D],2.3
9,EIGTSDQIVPEYQEDSDISRFFC [S20R],3.89
10,EIGTSDQIVPEYQEDSDISNFFC [S20N],2.83
11,EIGTSDQIVPEYQEDSDISHFFC [S20H],3.57
12,EIGTSDQIVPEYQEDSDISGFFC [S20G],3.23
13,EIGTSDQIVPEYQEDSDISFFFC [S20F],2.81
14,EIGTSDQIVPEYQEDSDISQFFC [S20Q],3.21
15,EIGTSDQIVPEYQEDSDISLFFC [S20L],1.79
16,EIGTSDQIVPEYQEDSDISCFFC [S20C],2.49
17,EIGTSDQIVPEYQEDSDISEFFC [S20E],2.37
18,EIGTSDQIVPEYQEDSDISPFFC [S20P],3.44
19,EIGTSDQIVPEYQEDSDISTFFC [S20T],3.07
20,EIGTSDQIVPEYQEDSDISKFFC [S20K],4.34
21,EIGTSDQIVPEYQEDSDISIFFC [S20I],2.32
22,EIGTSDQIVPAYQEDSDISSFFC [E11A],4.09
23,EIGTSDQIVPRYQEDSDISSFFC [E11R],3.68
24,EIGTSDQIVPVYQEDSDISSFFC [E11V],2.52
25,EIGTSDQIVPNYQEDSDISSFFC [E11N],3.08

row,Variant,protein stability index
1,EIGTSDQIVPQYQEDSDISSFFC [E11Q],3.12
2,EIGTSDQIVPYYQEDSDISSFFC [E11Y],3.46
3,EIGTSDQIVPMYQEDSDISSFFC [E11M],3.43
4,EIGTSDQIVPFYQEDSDISSFFC [E11F],3.63
5,EIGTSDQIVPGYQEDSDISSFFC [E11G],2.25
6,EIGTSDQIVPDYQEDSDISSFFC [E11D],2.18
7,EIGTSDQIVPLYQEDSDISSFFC [E11L],4.33
8,EIGTSDQIVPKYQEDSDISSFFC [E11K],4.4
9,EIGTSDQIVPWYQEDSDISSFFC [E11W],4.16
10,EIGTSDQIVPSYQEDSDISSFFC [E11S],3.1
11,EIGTSDQIVPCYQEDSDISSFFC [E11C],2.61
12,EIGTSDQIVPPYQEDSDISSFFC [E11P],3.5
13,EIGTSDQIVPHYQEDSDISSFFC [E11H],3.79
14,EIGTSDQIVPTYQEDSDISSFFC [E11T],2.77
15,EIGTSDQIVPIYQEDSDISSFFC [E11I],3.43
16,EIGTSDQIVPEYQEDSDIGSFFC [S19G],2.05
17,EIGTSDQIVPEYQEDSDIISFFC [S19I],1.83
18,EIGTSDQIVPEYQEDSDIFSFFC [S19F],1.99
19,EIGTSDQIVPEYQEDSDIHSFFC [S19H],2.89
20,EIGTSDQIVPEYQEDSDIESFFC [S19E],2.83
21,EIGTSDQIVPEYQEDSDINSFFC [S19N],2.92
22,EIGTSDQIVPEYQEDSDIRSFFC [S19R],3.83
23,EIGTSDQIVPEYQEDSDIWSFFC [S19W],1.56
24,EIGTSDQIVPEYQEDSDIVSFFC [S19V],2.72
25,EIGTSDQIVPEYQEDSDIQSFFC [S19Q],3.48

row,Variant,protein stability index
1,EIGTSDQIVPEYQEDSDIDSFFC [S19D],2.67
2,EIGTSDQIVPEYQEDSDILSFFC [S19L],2.32
3,EIGTSDQIVPEYQEDSDICSFFC [S19C],2.38
4,EIGTSDQIVPEYQEDSDITSFFC [S19T],2.35
5,EIGTSDQIVPEYQEDSDIASFFC [S19A],3.16
6,EIGTSDQIVPEYQEDSDIMSFFC [S19M],1.75
7,EIGTSDQIVPEYQEDSDIPSFFC [S19P],2.94
8,EIGTSDQIVPEYQEDSDIYSFFC [S19Y],1.84
9,EIGTSDQIVPEYQEDSDIKSFFC [S19K],4.21
10,EIGTSDQIVPEYQRDSDISSFFC [E14R],4.42
11,EIGTSDQIVPEYQKDSDISSFFC [E14K],4.03
12,EIGTSDQIVPEYQGDSDISSFFC [E14G],2.83
13,EIGTSDQIVPEYQHDSDISSFFC [E14H],3.56
14,EIGTSDQIVPEYQNDSDISSFFC [E14N],2.94
15,EIGTSDQIVPEYQIDSDISSFFC [E14I],1.68
16,EIGTSDQIVPEYQLDSDISSFFC [E14L],1.99
17,EIGTSDQIVPEYQDDSDISSFFC [E14D],2.65
18,EIGTSDQIVPEYQTDSDISSFFC [E14T],2.81
19,EIGTSDQIVPEYQYDSDISSFFC [E14Y],2.43
20,EIGTSDQIVPEYQSDSDISSFFC [E14S],2.88
21,EIGTSDQIVPEYQWDSDISSFFC [E14W],1.7
22,EIGTSDQIVPEYQPDSDISSFFC [E14P],2
23,EIGTSDQIVPEYQVDSDISSFFC [E14V],2.08
24,EIGTSDQIVPEYQCDSDISSFFC [E14C],2.48
25,EIGTSDQIVPEYQMDSDISSFFC [E14M],2.4

row,Variant,protein stability index
1,EIGTSDQIVPEYQQDSDISSFFC [E14Q],3.37
2,EIGTSDQIVPEYQFDSDISSFFC [E14F],2.33
3,EIGTSDQIVPEYQADSDISSFFC [E14A],2.81
4,EIGTSDQIVPEYQESSDISSFFC [D15S],3.33
5,EIGTSDQIVPEYQEWSDISSFFC [D15W],2.9
6,EIGTSDQIVPEYQEPSDISSFFC [D15P],3.02
7,EIGTSDQIVPEYQEESDISSFFC [D15E],2.2
8,EIGTSDQIVPEYQEMSDISSFFC [D15M],2.67
9,EIGTSDQIVPEYQEKSDISSFFC [D15K],3.42
10,EIGTSDQIVPEYQEHSDISSFFC [D15H],3.28
11,EIGTSDQIVPEYQEISDISSFFC [D15I],2.28
12,EIGTSDQIVPEYQEYSDISSFFC [D15Y],2.48
13,EIGTSDQIVPEYQELSDISSFFC [D15L],2.18
14,EIGTSDQIVPEYQECSDISSFFC [D15C],2.62
15,EIGTSDQIVPEYQENSDISSFFC [D15N],3.86
16,EIGTSDQIVPEYQEFSDISSFFC [D15F],2.24
17,EIGTSDQIVPEYQEVSDISSFFC [D15V],2.81
18,EIGTSDQIVPEYQEASDISSFFC [D15A],3.59
19,EIGTSDQIVPEYQETSDISSFFC [D15T],3.4
20,EIGTSDQIVPEYQEGSDISSFFC [D15G],3.71
21,EIGTSDQIVPEYQERSDISSFFC [D15R],4.24
22,EIGTSDQIVPEYQEQSDISSFFC [D15Q],2.92
